These results are taken from the nanobody polyreactivity screen of Harvey et al. (2022).

The data set is described as follows: yeast display, Sf9 membrane polyspecificity reagent, FACS + sequencing; frameworks hold sequencing errors. In a few lines:
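Galactose-induced (36–48 hours) yeast carrying a synthetic nanobody display library were exposed to 10% biotinylated, detergent-solubilized Sf9 membrane reagent at 4 °C for 1 hour. FACS followed streptavidin microbead enrichment, using low and high (top ~1%) gates for expression (anti-HA) and reagent binding (streptavidin). Colony PCR, MiSeq 2 × 250 sequencing and CDR-length filtering followed. Labels for polyreactivity reflect the gate of origin.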
Turning to “QVQLVESGGGLVQAGGSLRLSCAASGSIFWRNAMGWYRQAPGKERELVAAITKTGASTYYADSVKGRFTISRDNAKNTVYLQMNSLKPEDTAVYYCAKDTRGRYAGSYRYDYCGQGTQVTVSS”, the “polyreactivity (PSR sort gate)” value is on record as “low polyreactivity”. “QVQLVESGGGLVQAGGSLRLSCAASGSIFWRNAMGWYRQAPGKERELVAAITSGGSTYYADSVKGRFTISRDNAKNTVYLQMNSLNPEDTAVYYCAAGYSYRYGYWGQGTQVTVSS”: the “polyreactivity (PSR sort gate)” value is reported as “low polyreactivity”. On to “QVQLVESGGGLVQAGGSLRLSCAASGSIFWSNAMGWYRQSPGKEREFVASISSSGSTNYADSVKGRFTISRDNAKNTVYLQMNSLKPEDTAVYYCNADGLYSYWYFWSSAYDYWGQGTQVTVSS”, for which the “polyreactivity (PSR sort gate)” value is “low polyreactivity”. “QVQLVESGGGLVQAGGSLRLSCAASGSIFWSYAMGWYRQAPGKEREFVAAITVSGGSTYYADSVKGRFTISRDNAKNTVYLQMNSLKPEDTAVFYCAARQLTAGGTDLDYWGQGTKVTVSS”: the “polyreactivity (PSR sort gate)” value is “low polyreactivity”. Consider “QVQLVESGGGLVQAGGSLRLSCAASGSIFWSYAMGWYRQAPGKERELVAAITWSGGNTYADSVKGRFTISRDNAKNTVYLQMNSLTPEDTAVYYCAAYPAHGTKWYVYPSHDDYWGQGTQVNVSS”, for which the “polyreactivity (PSR sort gate)” value is recorded as “low polyreactivity”. Next, “QVQLVESGGGLVQAGGSLRLSCAASGSIFWSYAMGWYRQAPGKERELVAAITYSGTSTYYADSVKGRFTISRDNAKNTVYLQMNSLKPEDTAVSYCAASPYSRSRYDYWGQGTQVTVSS”: “low polyreactivity”; “QVQLVESGGGLVQAGGSLRLSCAASGSIFWSYAMGWYRQAPGKERELVAVINWSGGSTYYADSVKGRFTISRDNAKNTVYLQMTSLKPEDTAVYYCNKDLGPTKRPFTFDYWGQGTQVTVSS”: “low polyreactivity”; “QVQLVESGGGLVQAGGSLRLSCAASGSIFWTNVMGWYRQAPGKERELVAAISYSDGSTYYADSVKGRFTISRDNAKNTVYLQMNSLKPEDTAVYYCAADQYYYWGGYDYWGQGTQVTVSS”: “low polyreactivity”. As to “QVQLVESGGGLVQAGGSLRLSCAASGSIFWYNAKGWYRQAPGKERELVAAINWGGGSTYYADSVKGRFTISRDNAKNTVYLEMNSLTPEDTAVYYCNADQQVDHATVSQRDGYDYWGQGTQVTVSS”, the “polyreactivity (PSR sort gate)” value is given as “low polyreactivity”. Turning to “QVQLVESGGGLVQAGGSLRLSCAASGSIFWYYAMGWYRQAPGKERELVAAIRRGGSTTYADSVKGRFTISRDNAKNTVYLQMNSLKPEDTAVYYCAAEPYYWYRGDYWGQGTQVTVSS”, the “polyreactivity (PSR sort gate)” value is given as “high polyreactivity”. As to “QVQLVESGGGLVQAGGSLRLSCAASGSIFWYYAMGWYRQAPGKERELVAAISSGGSTYYADSVKGRFTISRDNAKNTVYLQMNSLKPEDTAVYYCAAGAFGQILNYWGQGTQVTVSS”, the “polyreactivity (PSR sort gate)” value is “high polyreactivity”. With “QVQLVESGGGLVQAGGSLRLSCAASGSIFWYYAMGWYRQAPGKERELVADITIRGGRTYYADSVKGRFTISRDNAKNTVYLQMNSLKPEDTAVYYCAADWEYWGFGLYDYWGQGTQVTVSS”, the “polyreactivity (PSR sort gate)” value is “low polyreactivity”. Regarding “QVQLVESGGGLVQAGGSLRLSCAASGSIFWYYAMGWYRQAPGKERELVASISSSGGSTYYADSVKGRFTISRDNAKNTVYLQMNSLKPEDTAVYYCAVRSPYRLSRWRVGYWGQGTQVTVSS”, the “polyreactivity (PSR sort gate)” value is listed as “high polyreactivity”. As for “QVQLVESGGGLVQAGGSLRLSCAASGSIFWYYVMGWYRQAPGKERELVAAITFSGAGTYYADSVKGRFTISRDNAKNTVYLQMNSLKPEDTAVYYCAARWLGHFYPFFLQGLSGFDYWGQGTQVTVSS”, the “polyreactivity (PSR sort gate)” value is given as “low polyreactivity”. For the sequence “QVQLVESGGGLVQAGGSLRLSCAASGSIFYANAMGWYRQAPAKERELVAAIRSGGSTNYADSVKGRFTISRDNAKKTVYLQMNSLKPEDTAVYYCAAVWRYWSGQKVGYWGQGTQVTVSS”, the “polyreactivity (PSR sort gate)” value was “high polyreactivity”. “QVQLVESGGGLVQAGGSLRLSCAASGSIFYANAMGWYRQAPGKERELVAAISWSGGRTYYADSVKGRFTISRDNAKNTVYLQMNSLKPEDTAVYYCNVLPLYLEYDYWGQGTQVTVSS”: the “polyreactivity (PSR sort gate)” value is reported as “high polyreactivity”.
